Data on 28 molecules can be found in article PMC314469, “Protein Interaction Networks by Proteome Peptide Scanning” (PLoS Biology, 2004).

T1: amphyphisin SH3 (AMPH_HUMAN), P49418
T1 chain: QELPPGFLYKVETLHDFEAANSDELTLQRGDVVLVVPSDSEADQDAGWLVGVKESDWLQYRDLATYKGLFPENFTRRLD

The target of one assay is T1, amphyphisin SH3 (AMPH_HUMAN), P49418. Kind of assay: SPOT array.
Regarding PMEGIRRPDQALLP [O00253 27-40], the normalised SPOT signal, Boehringer light units (BLU); mean over the file's lines of this peptide came out at 36.

PNLLPHRPPLLVFP [Q9Y6X6 669-683] returned a normalised SPOT signal, Boehringer light units (BLU); mean over the file's lines of this peptide of 70.2.

For PPGKPERPPPQGGN [P10163 115-129], the normalised SPOT signal, Boehringer light units (BLU); mean over the file's lines of this peptide was 59.4.

PPAPPLRPPGPPTG [Q9Y2W2 415-429] gave a normalised SPOT signal, Boehringer light units (BLU); mean over the file's lines of this peptide of 356.

The molecule PNLIPRRPSPYEKT [O95450 1177-1190] returned a normalised SPOT signal, Boehringer light units (BLU); mean over the file's lines of this peptide of 131.

PLRLPPRPPGPRLA [O95822 14-28]: the normalised SPOT signal, Boehringer light units (BLU); mean over the file's lines of this peptide was determined as 4940.

PPEKPPRPPRPLHL [Q8TEL4 110-124]: the normalised SPOT signal, Boehringer light units (BLU); mean over the file's lines of this peptide worked out at 14400.

Molecule PPGLPPRPPLSSSS [Q13470 532-546] yielded a normalised SPOT signal, Boehringer light units (BLU); mean over the file's lines of this peptide of 433.

With PPARPPRPPYPPRR [AAH27972 518-532], the normalised SPOT signal, Boehringer light units (BLU); mean over the file's lines of this peptide amounted to 16000.

PLRPILRPRKYPNR [P11161 316-329]: the normalised SPOT signal, Boehringer light units (BLU); mean over the file's lines of this peptide is 2100.

ASAPPRRPRPPPPS [Q9UEF7 3-16] displayed a normalised SPOT signal, Boehringer light units (BLU); mean over the file's lines of this peptide of 230.

In turn, PNIKISRPLKVLLT [Q9NPB9 231-244] returned a normalised SPOT signal, Boehringer light units (BLU); mean over the file's lines of this peptide of 91.3.

PPASPRRPRSFKSK [Q9HCK6 1105-1118] came in with a normalised SPOT signal, Boehringer light units (BLU); mean over the file's lines of this peptide of 58.1.

In turn, PMVPPRRPWTLVNW [Q9NRZ5 298-311] registered a normalised SPOT signal, Boehringer light units (BLU); mean over the file's lines of this peptide of 2870.

Consider PPALPPKPPKPMTS [Q92569 33-47], for which the normalised SPOT signal, Boehringer light units (BLU); mean over the file's lines of this peptide was 88.3.

PPGPPTRPPGPWRW [O15354 108-122] yielded a normalised SPOT signal, Boehringer light units (BLU); mean over the file's lines of this peptide of 1320.

Take ASAPPQRPPSGPEG [Q96LW7 145-159]: the normalised SPOT signal, Boehringer light units (BLU); mean over the file's lines of this peptide worked out at 21.2.

For PMRLPRRPLRAFES [O14545 178-191], the normalised SPOT signal, Boehringer light units (BLU); mean over the file's lines of this peptide was found to be 5210.

The molecule PPAPLRRPLAVLHA [Q96BU4 174-187] registered a normalised SPOT signal, Boehringer light units (BLU); mean over the file's lines of this peptide of 315.

In turn, PPGKPERPPPQGGD [P81489 133-147] returned a normalised SPOT signal, Boehringer light units (BLU); mean over the file's lines of this peptide of 61.4.

In turn, PNATPRRPLQELRR [Q9HCF2 2-15] gave a normalised SPOT signal, Boehringer light units (BLU); mean over the file's lines of this peptide of 405.

PPAPPTRPPRRSDS [P35443 278-292] displayed a normalised SPOT signal, Boehringer light units (BLU); mean over the file's lines of this peptide of 20500.

For PLRHFKRPAYASSS [Q14123 658-671], the normalised SPOT signal, Boehringer light units (BLU); mean over the file's lines of this peptide amounted to 28.7.

As to PNYDLRRPHQYLHP [O94991 899-912], the normalised SPOT signal, Boehringer light units (BLU); mean over the file's lines of this peptide turned out to be 24.6.

Regarding PPALPPKPPKAKPA [O00459 298-312], the normalised SPOT signal, Boehringer light units (BLU); mean over the file's lines of this peptide came to 124.

ASAPPRRPRPPPQS [Q9UEI9 3-16]: the normalised SPOT signal, Boehringer light units (BLU); mean over the file's lines of this peptide turned out to be 914.

In the case of PPALPPKPPKPTTV [AAH30815 33-47], the normalised SPOT signal, Boehringer light units (BLU); mean over the file's lines of this peptide was determined as 77.9.

In the case of PMAPIRRPISAESA [P53675 58-71], the normalised SPOT signal, Boehringer light units (BLU); mean over the file's lines of this peptide was found to be 1010.

The target in another assay is endophilin SH3 (SH3G2_HUMAN), Q99962. The assay is described as follows: SPOT array.
The molecule PMEGIRRPDQALLP [O00253 27-40] came in with a normalised SPOT signal, Boehringer light units (BLU); mean over the file's lines of this peptide of 66.

Molecule PNLLPHRPPLLVFP [Q9Y6X6 669-683] displayed a normalised SPOT signal, Boehringer light units (BLU); mean over the file's lines of this peptide of 191.

The molecule PPGKPERPPPQGGN [P10163 115-129] had a normalised SPOT signal, Boehringer light units (BLU); mean over the file's lines of this peptide of 760.

The molecule PPAPPLRPPGPPTG [Q9Y2W2 415-429] came in with a normalised SPOT signal, Boehringer light units (BLU); mean over the file's lines of this peptide of 3740.

As for PNLIPRRPSPYEKT [O95450 1177-1190], the normalised SPOT signal, Boehringer light units (BLU); mean over the file's lines of this peptide is 398.

In turn, PLRLPPRPPGPRLA [O95822 14-28] had a normalised SPOT signal, Boehringer light units (BLU); mean over the file's lines of this peptide of 18500.

PPEKPPRPPRPLHL [Q8TEL4 110-124] displayed a normalised SPOT signal, Boehringer light units (BLU); mean over the file's lines of this peptide of 29300.

As for PPGLPPRPPLSSSS [Q13470 532-546], the normalised SPOT signal, Boehringer light units (BLU); mean over the file's lines of this peptide turned out to be 5470.

Consider PPARPPRPPYPPRR [AAH27972 518-532], for which the normalised SPOT signal, Boehringer light units (BLU); mean over the file's lines of this peptide stood at 20000.

PLRPILRPRKYPNR [P11161 316-329] registered a normalised SPOT signal, Boehringer light units (BLU); mean over the file's lines of this peptide of 4850.

Molecule ASAPPRRPRPPPPS [Q9UEF7 3-16] had a normalised SPOT signal, Boehringer light units (BLU); mean over the file's lines of this peptide of 9160.

With PNIKISRPLKVLLT [Q9NPB9 231-244], the normalised SPOT signal, Boehringer light units (BLU); mean over the file's lines of this peptide was determined as 155.

The molecule PPASPRRPRSFKSK [Q9HCK6 1105-1118] had a normalised SPOT signal, Boehringer light units (BLU); mean over the file's lines of this peptide of 272.

Regarding PMVPPRRPWTLVNW [Q9NRZ5 298-311], the normalised SPOT signal, Boehringer light units (BLU); mean over the file's lines of this peptide came to 648.

Take PPALPPKPPKPMTS [Q92569 33-47]: the normalised SPOT signal, Boehringer light units (BLU); mean over the file's lines of this peptide was 2510.

Take PPGPPTRPPGPWRW [O15354 108-122]: the normalised SPOT signal, Boehringer light units (BLU); mean over the file's lines of this peptide came out at 9250.

ASAPPQRPPSGPEG [Q96LW7 145-159] gave a normalised SPOT signal, Boehringer light units (BLU); mean over the file's lines of this peptide of 435.

In the case of PMRLPRRPLRAFES [O14545 178-191], the normalised SPOT signal, Boehringer light units (BLU); mean over the file's lines of this peptide was determined as 1200.

The molecule PPAPLRRPLAVLHA [Q96BU4 174-187] had a normalised SPOT signal, Boehringer light units (BLU); mean over the file's lines of this peptide of 453.

Turning to PPGKPERPPPQGGD [P81489 133-147], the normalised SPOT signal, Boehringer light units (BLU); mean over the file's lines of this peptide was 312.

The molecule PNATPRRPLQELRR [Q9HCF2 2-15] registered a normalised SPOT signal, Boehringer light units (BLU); mean over the file's lines of this peptide of 1570.

With PPAPPTRPPRRSDS [P35443 278-292], the normalised SPOT signal, Boehringer light units (BLU); mean over the file's lines of this peptide turned out to be 12100.

PLRHFKRPAYASSS [Q14123 658-671]: the normalised SPOT signal, Boehringer light units (BLU); mean over the file's lines of this peptide worked out at 9.5.

Molecule PNYDLRRPHQYLHP [O94991 899-912] gave a normalised SPOT signal, Boehringer light units (BLU); mean over the file's lines of this peptide of 0.

As to PPALPPKPPKAKPA [O00459 298-312], the normalised SPOT signal, Boehringer light units (BLU); mean over the file's lines of this peptide was 4320.

ASAPPRRPRPPPQS [Q9UEI9 3-16] returned a normalised SPOT signal, Boehringer light units (BLU); mean over the file's lines of this peptide of 1320.

PPALPPKPPKPTTV [AAH30815 33-47] returned a normalised SPOT signal, Boehringer light units (BLU); mean over the file's lines of this peptide of 3470.

As for PMAPIRRPISAESA [P53675 58-71], the normalised SPOT signal, Boehringer light units (BLU); mean over the file's lines of this peptide came to 464.
